# Measurements published in patent US20180186871A1 (SINGAPORE HEALTH SERVICES PTE, published 2018).
# Like-named read-outs stand apart in the source and are kept apart here.
# T1: human IL-11 (human, UniProt P20809 22-199)
# T1 construct: In the ELISAs this is recombinant human IL-11 coated on the plate (expressed in CHO cells as Fc-tagged and tag-free versions); In the fibroblast assays it is the IL-11 produced by human fibroblasts after TGFβ1 stimulation; also called recombinant human IL-11 (GenScript Cat. No. Z03108-1); interleukin 11
# T1 sequence (looked up): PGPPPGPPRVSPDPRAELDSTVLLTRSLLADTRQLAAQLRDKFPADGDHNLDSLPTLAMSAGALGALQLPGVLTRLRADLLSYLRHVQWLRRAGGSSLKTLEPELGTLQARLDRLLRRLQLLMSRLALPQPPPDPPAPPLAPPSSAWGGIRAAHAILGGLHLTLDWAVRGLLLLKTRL
# T2: FLAG-tagged human IL-11 expressed at the cell surface (human, UniProt P20809 22-199)
# T2 construct: whole, on cells; also called IL-11 expressing HEK cells; target cells expressing human IL-11 at their surface; not shown: how the protein is held at
# T2 sequence (looked up): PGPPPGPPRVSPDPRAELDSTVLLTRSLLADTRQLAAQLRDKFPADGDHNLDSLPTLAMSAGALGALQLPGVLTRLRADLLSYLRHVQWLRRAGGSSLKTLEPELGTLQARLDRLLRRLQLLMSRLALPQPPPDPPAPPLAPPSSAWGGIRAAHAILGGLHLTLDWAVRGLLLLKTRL
# Legend:
# human IL-11 [1] = biological target: T1, human IL-11; test: ELISA on coated recombinant human IL-11, scFv-Fc dilution series
# human IL-11 [2] = biological target: T1, human IL-11; test: ELISA binding signal
# human IL-11 [3] = biological target: T1, human IL-11; test: cell-based or functional assay
# human IL-11 [4] = biological target: T1, human IL-11; test: indirect ELISA on plate-coated recombinant human IL-11 (1 µg/mL), detection with HRP anti-human IgG (Fc-specific), absorbance 450-570 nm
# human IL-11 [5] = biological target: T1, human IL-11; test: as above; remark: listed apart in the source
# human IL-11 [6] = biological target: T1, human IL-11; test: EC50 from the indirect ELISA titrations of FIGS. 28A-28F on plate-coated recombinant human IL-11 (five-parameter fit), ng/ml is the concentration unit of FIG. 28 and paragraph 502
# human IL-11 [7] = biological target: T1, human IL-11; test: EC50 by indirect ELISA on plate-coated recombinant human IL-11 (five-parameter fit); no titration curve of Yu33-B4 is drawn in FIGS. 28A-28F, ng/ml is the concentration unit of FIG. 28 and paragraph 502
# [8] = biological target: T2, FLAG-tagged human IL-11 expressed at …; test: flow cytometry of hybridoma subclone supernatants on cells transfected with pB1-IL11-hum.FL (FLAG-tagged human IL-11 at the cell surface), anti-mouse IgG detection; sheet says 'flow cytometry (Attunes)', legend says iQue
# human IL-11 [9] = biological target: T1, human IL-11; test: indirect ELISA on plate-coated recombinant human IL-11 (1 µg/mL), detection with HRP anti-human IgG (Fc-specific), absorbance 450-570 nm; remark: listed apart in the source
binder,measurement,setting,value
"YU100-F11 (scFv, light chain-shuffled human anti-IL-11 clone) scFv: QVQLVESGGGVVQPGRSLRLSCAASGFTFSSYGMHWVRQAPGKGLEWVAVISYDGSNKYYADSVKGRFTISRDNSKNTLYLQMNSLRAEDTAVYYCAKIGATDPLDYWGQGTLVTVSSGSASAPKLEEGEFSEARVQSALTQPASVSGSPGQSITISCTGSSSDVAGYNYVSWYQQHPGKAPKLMIYDVTKRPSGVPDRFSGSKSGNTASLTISGLQAEDEADYYCCSYAGSYTWVFGGGTQLTVL",EC50,human IL-11 [1],0.027 µg/mL
same,hIL11 - average signal,human IL-11 [2],0.319
same,"MMP2 production (ng/ml), TGFB1-stimulated human atrial fibroblasts, Experiment 1 (NEG 42.7, POS 70.2)",human IL-11 [3],44.5 ng/mL
same,"MMP2 production (ng/ml), TGFB1-stimulated human atrial fibroblasts, Experiment 2 (NEG 36.2, POS 62.3)",human IL-11 [3],37.6 ng/mL
"YU100-H01 (scFv, light chain-shuffled human anti-IL-11 clone) scFv: QVQLVQSGGGVVQPGRSLRLSCAASGFTFSSYAMHWVRQAPGKGLEWVAVISYDGSNKYYADSVKGRFTISRDNSKNTLYLQMNSLRAEDTAVYYCARIMGYDYGDYDVVDYWGQGTLVTVSSGSASAPKLEEGEFSEARVQSALTQPRSVSGSPGQSVTISCTGTSSDVGAYNYVSWYQQHPGKAPKLMIYDVSERPSGVPDRFSGSKSGNTASLTISGLQAEDEADYYCCSYAGSYTWVFGGGTKLTVL",EC50,human IL-11 [1],0.053 µg/mL
same,hIL11 - average signal,human IL-11 [2],0.43
same,"MMP2 production (ng/ml), TGFB1-stimulated human atrial fibroblasts, Experiment 1 (NEG 42.7, POS 70.2)",human IL-11 [3],48.3 ng/mL
same,"MMP2 production (ng/ml), TGFB1-stimulated human atrial fibroblasts, Experiment 2 (NEG 36.2, POS 62.3)",human IL-11 [3],42.2 ng/mL
"YU100-G08 (scFv, light chain-shuffled human anti-IL-11 clone) scFv: QVQLVQSGGGVVQPGRSLRLSCAASGFTFSSYGMHWVRQAPGKGLEWVAVISYDGSNKYYADSVKGRFTISRDNSKNTLYLQMNSLRAEDTAVYYCAKIGATDPLDYWGQGTLVTVSSGSASAPKLEEGEFSEARVQSALTQPRSVSGSPGQSVTLSCTGTSSDVGGYNYVSWYQHYPGKAPKLMIFDVNERSSGVPDRFSGSKSGNTASLTISGLQAEDEADYYCCSYAGRYTWMFGGGTKVTVL",EC50,human IL-11 [1],0.028 µg/mL
same,hIL11 - average signal,human IL-11 [2],0.153
same,"MMP2 production (ng/ml), TGFB1-stimulated human atrial fibroblasts, Experiment 1 (NEG 42.7, POS 70.2)",human IL-11 [3],42.3 ng/mL
same,"MMP2 production (ng/ml), TGFB1-stimulated human atrial fibroblasts, Experiment 2 (NEG 36.2, POS 62.3)",human IL-11 [3],38 ng/mL
"Yu33-H3 (IgG) (antibody, V domains shown, also called YU33-B3/H3; #2) VH: EVQLVESGGGFVKPGGSLSISCAASGFTFSGAYMNWVRQAPGKGLEWVAVISYDGSNKYYADSVKGRFTISRDNSKNTLYLQMNSLRAEDTAVYYCARDLYAFDIWGQGTMVTVSS VL: LPVLTQPHSVSESPGRTVTISCTRNTGNIASNRVQWYQQRPASAPTVVIYDNHQRPSGVPDRFSGSIDTSPNSAYLTISGLKTEDEADYYCQSYDYSSVIFGGGTQLTVL",binding result,human IL-11 [4],binds
"Yu45-G8 (Fc fusion, not shown: a dimerising Fc or GST; small tags and cut ends, also called YU45-G8/H6; #19) VH: EVQLVESGGGVVQPGRSLRLSCAASGFTFSSYGMHWVRQAPGKGLEWVAVISYDGSNKYYADSVKGRFTISRDNSKNTLYLQMNSLRAEDTAVYYCAKFARGVYLFDYWGQGTLVTVSS VL: QSALTQPASVSGSPGQSITISCTGTSSDVGGYDYVSWYQQHPGTAPKLMISDVHNRPLGVSNRFSGSKSGNTASLTISGLQAEDEADYYCSSYTSSITWVFGGGTKLTVL",EC50 (read off the curve),human IL-11 [5],~0.006 µg/mL
same,EC50,human IL-11 [6],0.00629 µg/mL
"YU45-F2 (Fc fusion, tested as scFv-Fc (human IgG1); also called #24) VH: not shown VL: QPVLTQPRSVSGSPGQSVTISCTGTSSDVGGYNYVSWYQQHPGKAPKVMIYDVSKRPSGVPDRFSGSKSGNTASLTISGLQAEDEADYYCCSYAGSYTWVFGGGTKLTVL",EC50 (read off the curve),human IL-11 [5],~0.004 µg/mL
same,EC50,human IL-11 [6],0.00424 µg/mL
"YU33-B4/YU45-G2/A3 (Fc fusion, tested as scFv-Fc (human IgG1)) VH: EVQLVESGGGVVQPGRSLRLSCAASGFTFSSYGMHWVRQAPGKGLEWVAVISYDGSNKYYADSVKGRFTISRDNSKNTLYLQMNSLRAEDTAVYYCAKIGATDPLDYWGQGTLVTVSS VL: QSALTQPASVSGSPGQSITISCTGTSSDVGGYNYVSWYQQHPGKAPKLMIYDVSNRPSGVSNRFSGSKSGNTASLTIFGLQAEDEADYYCSSYTSSSSWVFGGGTKLTVL",EC50,human IL-11 [6],0.0142 µg/mL
same,EC50,human IL-11 [7],0.198 µg/mL
"BSN-2G6 (antibody, V domains shown, mouse monoclonal anti-human IL-11 antibody from a hybridoma; also called A5) VH: QVQLQESGPELVKPGASVKIPCKASGYTFTDYNMDWVKQSHGKSLEWIGNINPDNGGTIYNQKFKGKATLTVDKSSSTAYMELRSLTSEDTAVYFCAREGPYGYTWFAYWGQGTLDTVSA VL: DILLTQSPAILSVSPGERVSFSCRASQSIGTSIHWYQQRTNGSPRLLIKYASESISGIPSRFSGSGSGTDFTLSINSVESEDIADYYCQQSNSWPLTFGAGTKLELK",% positive (anti-FLAG positive control = 100%),[8],23%
"BSN-3C6 (antibody, V domains shown) VH: EVQLQQSGPELVKPGASVKIPCKASGYTFTDYNMDWVKQSHGKSLEWIGDINPHNGGPIYNQKFTGKATLTVDKSSSTAYMELRSLTSEDTAVYYCARGELGHWYFDVWGTGTTVTVSS VL: DIVLTQSPASLAVSLGQRATISCRASKSVSTSGYSYIHWYQQKPGQPPKLLIYLASNLDSGVPARFSGSGSGTDFTLNIHPVEEEDAATYYCQHSRDLPPTFGGGTKLEIK",% positive (anti-FLAG positive control = 100%),[8],176%
"BSN-5B8 (antibody, V domains shown, mouse monoclonal anti-human IL-11 antibody from a hybridoma; also called A9) VH: QVQLQQSGAELARPGTSVKLSCKASGYTFTSYGISWVKQRTGQGLEWIGEIYPRSSNTYYNEKFKGKATLTADKSSSTAYMELRSLTSEDSADYFCARANWVGYFDVWGTGTTVTVSS VL: DIVMTQSHKFMSTSVGDRVTITCKASQDVGTAVAWYQQKPGQSPKLLIYWASTRLTGVPDRFTGSGSGTYFTLTINNVQSEDLADYFCQQYSSYRTFGGGTKLEIK",% positive (anti-FLAG positive control = 100%),[8],188%
"BSN-7D4 (antibody, V domains shown) VH: EVQLQQSGPELVKPGASVKISCKASGYTFTDYNMDWVKQSQGKRLEWIGDINPNYGGTIYNQKFKGKATLTVDKSSSTAYMELRSLTSEDTTVYYCTRGELGHWYFDVWGTGTTVTVSS VL: DIVLTQSPPSLTVSLGQRATISCRASKSVSASGYSYMHWYQQKPGQPPKLLIYLTSNLESGVPARFSGSGSGTDFTLNIHPVEEEDAATYYCQHSWDLPPTFGGGTKLEIK",% positive (anti-FLAG positive control = 100%),[8],176%
"BSN-8H11 (antibody, V domains shown) VH: EVQLQQSGPELVKPGASVKIPCKASGYTFTDYNIDWVKQSHGKSLEWIGDINPNYGGTLYNQKFKGKATLTVDKSSSTAYMELRSLTSEDTAVYYCARGELGHWYFDVWGTGTTVTVSS VL: DIVLTQSPASLAVSLGQRATISCRASKSVSTSDYSYMHWYQQKPGHPPKLLIYLASNLESGVPARFSGSGSGTDFTLNIHPVEEEDAATYFCQHSRDLPPTFGGGTKLEIK",% positive (anti-FLAG positive control = 100%),[8],190%
"Yu33-A2 (IgG) (antibody, V domains shown, also called #1) VH: QLQQSGPGLVKPSQTLSLTCAISGDSVSSNSAAWNWIRQSPSRGLEWLGRTYYRSKWYNDYAVSVKSRITINPDTSKNQFTLQLNSVTPDDTAVYYCARGTRGYFDYWGQGTLVTVSS VL: DVVMTQSPSSLSASVGDRVTITCRASQDVGRYVAWYQQKVGKVPRLLIYAASALQSGVPSRFSGTASETSFTLTISSLQPEDVASYYCQQYRSAPLAFGGGTGVEIK",binding result,human IL-11 [9],no binding (tested: 800 ng/ml)
